According to paper PMC3435532:

Key:
[1] = test system: FLI1-CTD (C-terminal FLI1 domain, non-acetylated); assay: EMSA; conditions: Non-radioactive EMSA: 1 ug protein, 500 fmol biotinylated dsDNA, binding buffer per Uren et al. 2004 (not given); 6% gel in 0.5x TBE; protein stock 20 mM …
acetyl-FLI1-CTD = assay: EMSA; conditions: acetylated by CBP HAT; 1 ug protein, 500 fmol probe; Non-radioactive EMSA: 1 ug protein, 500 fmol biotinylated dsDNA, binding buffer per Uren et al. 2004 (not given); 6% gel in 0.5x TBE; protein stock 20 mM …

Question: Which binding signal (fold (reference, non-acetylated)) [1] does the source give for “ets-binding site oligonucleotide (wild type)” here?
Answer: 1

Question: And the binding signal (fold vs non-acetylated FLI1-CTD) (acetyl-FLI1-CTD)?
Answer: 4
